Laboratory results as given in publication PMC3399738.

How the values were obtained:
[1] = biological target: T1, RPA (human heterotrimer) (human, UniProt P27694;P15927;P35244 1-616;1-270;1-121); assay: EMSA
[2] = biological target: T1, RPA (human heterotrimer); assay: EMSA; remark: listed apart in the source
[3] = biological target: T1, RPA (human heterotrimer); assay: pull-down
[4] = biological target: SSB (Escherichia coli, UniProt P0AGE0 1-178); assay: pull-down
SSB, sequence (P0AGE0 whole entry): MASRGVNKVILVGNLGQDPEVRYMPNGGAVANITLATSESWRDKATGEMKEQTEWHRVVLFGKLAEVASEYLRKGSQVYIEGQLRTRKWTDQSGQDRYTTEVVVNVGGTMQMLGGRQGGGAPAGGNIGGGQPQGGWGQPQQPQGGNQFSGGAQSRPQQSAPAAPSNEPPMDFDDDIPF

T1 sequence (P27694 whole entry, chain 1 of 3): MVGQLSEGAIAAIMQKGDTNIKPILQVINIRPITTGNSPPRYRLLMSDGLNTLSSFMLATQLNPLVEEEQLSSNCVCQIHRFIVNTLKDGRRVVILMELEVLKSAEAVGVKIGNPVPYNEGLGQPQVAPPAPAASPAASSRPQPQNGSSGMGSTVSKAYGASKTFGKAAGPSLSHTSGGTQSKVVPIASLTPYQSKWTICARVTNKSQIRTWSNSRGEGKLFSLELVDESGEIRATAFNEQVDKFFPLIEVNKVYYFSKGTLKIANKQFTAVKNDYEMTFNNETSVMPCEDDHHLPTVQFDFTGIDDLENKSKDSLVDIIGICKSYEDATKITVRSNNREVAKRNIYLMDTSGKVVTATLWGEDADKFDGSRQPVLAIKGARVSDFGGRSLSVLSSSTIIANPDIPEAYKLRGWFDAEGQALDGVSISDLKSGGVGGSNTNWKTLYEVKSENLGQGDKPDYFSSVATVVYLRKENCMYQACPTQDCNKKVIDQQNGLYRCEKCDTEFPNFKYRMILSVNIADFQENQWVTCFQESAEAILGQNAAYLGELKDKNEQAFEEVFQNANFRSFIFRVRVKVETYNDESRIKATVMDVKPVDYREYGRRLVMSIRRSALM
T1 sequence (P15927 whole entry, chain 2 of 3): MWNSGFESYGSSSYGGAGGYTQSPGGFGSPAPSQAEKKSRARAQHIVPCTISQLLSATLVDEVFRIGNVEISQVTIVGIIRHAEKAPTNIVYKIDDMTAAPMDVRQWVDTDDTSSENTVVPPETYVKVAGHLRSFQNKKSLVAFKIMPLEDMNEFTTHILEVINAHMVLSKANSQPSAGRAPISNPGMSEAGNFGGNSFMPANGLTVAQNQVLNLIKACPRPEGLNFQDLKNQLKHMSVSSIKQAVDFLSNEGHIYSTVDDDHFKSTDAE
T1 sequence (P35244 whole entry, chain 3 of 3): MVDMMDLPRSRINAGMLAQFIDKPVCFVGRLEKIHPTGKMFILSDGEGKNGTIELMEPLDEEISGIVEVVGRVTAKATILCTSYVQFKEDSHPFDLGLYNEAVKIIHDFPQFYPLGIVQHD

## TTTTTTTTTTTTTTTTTTTTTTTTTTTTTT (ssDNA) [polyT(30) 5' IRDye-700]
[1]
  binding result: binds

B1: dT30/dA30 duplex (dsDNA)
DNA 1: TTTTTTTTTTTTTTTTTTTTTTTTTTTTTT
DNA 2: AAAAAAAAAAAAAAAAAAAAAAAAAAAAAA
[2]
  binding result: binds

## TTTTTTTTTTTTTTTTTTTTTTTTTTTTTT (ssDNA) [polyT(30) 3' biotin]
[3]
  binding result: binds
[4]
  binding result: binds
